Assay: soluble fraction after stress (log2 fold change); higher = more stays soluble; pooled small domains, quantitative proteomics
Details: stress: pH 4
Outline: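 Aggregation propensity here comes from the fold change in the soluble amount of each small protein domain after acid stress, measured in pooled custom libraries by high-throughput quantitative proteomics. The acid stress was pH 4. On the log2 scale, higher values mean more of the domain stayed soluble.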

Sequence	soluble fraction (log2)
HMDAYDEVTTLSQMVASGKNTTVAHLKHLKEYHQTDYLRQAVEWLLSNRKNVSFSVDEVMQEVHN	-0.434
HMDAYLPETVQKLLDVMDFDVPYSAAQLMEKLGLKSRASFRKLYLLPALEKNLIAMGVPDKPTSRNQTYIR	0.169
HMDAYSYFIRTYPLVDDPLIGDIRRIFAETHDGNPAGDADVRHILWRLLFERELYPTLDEATADWY	-1.86
HMDDEAVQIMTLHISKGLEFDVVFALGLVSRTPESKEIEELEAEKQRQLYVAMTRAEKWLIVAA	0.22
HMDDEDLAFLQREFVSYQQAMDYYGLGYKPVVRLSHISGSVYKIGKKVLIRRNIFEEYLRNHV	-0.666
HMDDFGERLRKLRVAQDLTQQQLGEKLGVVPSTIGKYEKVKDSYPSIEVLIKLSDFFSVSTDYLLKG	-0.905
HMDDFTEVLLQYLKDHDGYSSIHDKTDAETIYNTFGVSKKTFKKAVGDLYKKRLIVLEEEGIRLLG	-0.586
HMDDISLEEIKYISSKLETKVNEIEELLVRYYDGETNEAEEKELKEFFAQADVPAHLLAEKRLFMQLASQ	-0.324
HMDDKVGKVFNYVQEKILTGEWDIGDKITPEISLSKELGVSRSVVREAIKKFVALNILSRTQGGGTYVNNL	-0.621
HMDDNMNEQWKMILNSIAKKGSVTRQETEKILGIGQTRAHVLLKAMIHAGMIKAVGDGKKRRYVR	≥ 0.43
HMDDNRSLSDLAQQVFKRENIQVSRDTLSLLVSRLGSDRAVSRQEIEKLALFAGSNGKLTEEDIHNALG	-0.195
HMDDPISSMVNRIRLAFGLSVTDLAAVLGVERPTIYSWLKDGSTPAPARLTRVRQVLSLADTW	≥ 0.43
HMDDPITVAYRETEDAIAQVQREGFPVEMPPANSYIRRIQHELAGRFNLDSESYGDEPERRVRIRPQQ	-0.92
HMDDPTVILFDPKNGQRKIVKWKAGLTLYSARRSAGISSAAEATIQRAGKSLSGRTATALEPGDVIRW	0.203
HMDDSSLFGRHTGIGFIVDDIDSGYQTLLAKGVSFEMPPTEQPWGGILALMKDPDGNIFYLD	-0.488
HMDDTRLLSEIGLSQRVLNALRARGIERVGQVLAMRPDQLLGIRNFGPRALQELRERLQENGYTEGPLFSG	-0.252
HMDDVIDVYATYDVSPTNQISNIKLYSDAAHANPVTGEAGKSYNDITEGHPGYQFRWSGTTWVPI	0.0332
HMDDVIEVEGKVVEVLPNTKFIVELANSHKITAHISGKLRMNYIRIMKGDNVTVEMSPYDLTKGRIIWRS	-0.167
HMDDVVVLPFTAEFARMSSDDFVREILVGKIGMKRFVVGYNHRFGSGQQGDFASLQRMQGELGFVAVRVG	-0.479
HMDDVYMVPVKDIAINDLKQEFEKLGIPNIQNTIPDKDLNFFIVRKDDLALVNYAIEKTMER	-0.523
HMDEAETELIRRMVSEHPPTTKRERDIVQMRLRGYLFVEIGEAYGISFQRAAQIYNAAVEKIKEYWD	-0.454
HMDEEQIASRRALIMRAAREIMETQGMEALSIRKIAAMIQQTPGIIYHYFSGKEELMLAVVQEGYH	-0.219
HMDEFAGSAKPLADGAAPAGYDVKGNKDSMKYHEPGGRWYDATVAEVWFKTAADAEAAGFVKAGA	-0.266

Sequence	soluble fraction (log2)
HMDEFHLSERERQILNLLVLGHTYKHIASDLNIAYATVNKHVSNVYAKLRVQSASEAVALAIRKGL	-0.58
HMDEFTIILEDAGSQKIAVIKEVRVLNSSLGLKEAKDLVDATPATIMEKADKATADKAKAAFEAAGAKVTI	-0.75
HMDEIDYSKYSITTSNRIINIDGVQSKVELFDVSGRSIQSTMVTGKFSSRPLNAGFYIIHVDGYSVKVSV	-1.19
HMDELIKQVANYIINNRATINETAGAFGKSVSSIKKYINDADKLQRIDFELYQKVKEVQKIVELNGQI	-0.269
HMDEMEFQKYVDQNLKQKGISLTAEAKAELLLRLGGDTMLLHSAIEKLDLYGEKNLNLNDIKHLVSLNSDV	0.0232
HMDENMQRYNTMEEIKKEFPYAEDTVRKLIAMGAIRGGGKVDANGDPADMDLSRDMLRMMVFNDRAGAYG	-0.761
HMDEPGTGFKWREDVLLRVMEANGIDTSHRDDFVRHAVKFDNDDNLYLKKAEIEDAAAAWVSEHS	-1.59
HMDERLAKLTPQERKILDLIAEGATNRQIGTELHLAEKTVKNYVSNMLMKLGMSRRTEAAVFAVKASIN	≥ 0.43
HMDERLLRLYERELQFLREGADEFAQAYPKVAGHLGLNSQSMGDPFIERLLEGLGFLTARIQLQLESEF	-0.823
HMDEWFPVNDDYKFMVGDEVRTPDGLVKVVATHNDSATFYGKIITPIHDDVLKGETYEYRSYEAQVLA	-1.26
HMDEWKRKELWDAIARLPKIQRMVVTMRTTENLPYKEIAKIMNISENSAKVNYHHAVEALKIFF	0.0454
HMDEYGEVQALQRAGQTSEALARADRHIAAHPNDPQMRFVKANLLSAGGRAGEAETLLVQLTRD	-0.176
HMDFDLIAIFEEQFARALSPIEINIIKEWKNSNYSDDMIVKALKEAVKSQVFNFRYIERILINWSQNG	-1.64
HMDFDVELTSAGTAKVKVIKAVREATGLGLKEAKDLVDNAPSIVKEGLDEAAANDLKAALEETGASVTL	0.239
HMDFEEGAVKWFNTKKGYGFITRDQGDDIFVHFRNIKAQSRRSLTDGERVTFVVTEGDKGLQADHVSPV	-0.886
HMDFGHWAAHKLEQMSEYRLRHGEAVAIGIALDVLYSVRQGLLARPAAERILSLLERLGFTLFDPELKS	-0.291
HMDFLKSVDLSKYSKVESLILSHLSKGDFDIDDFIRSFSLGTDEVTRAIVSLEIEGIILRKGNRIFRKKS	0.0153
HMDFMNSEIKKIVEDLKLTLQSLNYTKNEIKSILPVINKETDNLIKKEKYASFENLLRLAMNHLDNN	-0.929
HMDFTPDQIARLDDIISRYKDKPGGLIPVLEEAQVALEYLPIGVQKRIAKGLNLPLSRVYGVVTFYSFFTM	-0.451
HMDFVKGDTVVFIDAFMPDHLMTIHKVQGEGILLDGNHKFALAHLIRHASTVELNAKRRLSLTEQS	-0.685
HMDGASLLDIDGDGKVTPTIDGLLLMRWQFGTRGAALIGGISFPAGALRTTVNAIELHMRRLSETT	-1.52
HMDGDVAVKGGDGVLEVRLANAANVRVYNLAGRLMADYTGTELHMPLPKGVYMVVAGDNRTKVVV	-0.00794
HMDGEINPYTGREYVTNSVRMHPRRIGYVQVYSRKDHKWTDMTEWAFLGEQERKKVLLGKAYEPPVYL	0.0599

Sequence	soluble fraction (log2)
HMDGEMRRKRILQLLSEQTKPLSGTALAKQFGVSRQVIVQDIALLKSKEPAIISTYRGYVLGR	0.142
HMDGFAEFWSAYPKKVGKGAAEASWRKHRPPLQTVLDAVKRQAESDQWRKDGGQFIPNPATWLNQKRWEDD	-0.101
HMDGIIIPDVSGKSYAEAVATLNEKGFKVEKGEDAGSSLAKDLVSYTNPAAGNRAKSGATISVFVSTGANA	-0.0718
HMDGKTALQEIVASSGWSPPEYKVSESGPDHDKDFVAYAIVNGVAYPEGHGKSKREAEQVAARIAFEALSK	-0.00195
HMDGMRASDMVRAALAGAGKTQKELAEHMGWTPQNLSGRLKNNSLTFDELSKALHFAGYEVSMSDANGAG	-0.115
HMDGNVPSVEGKPLSGAKYILETYGYKTGTVTEVNSEDVPAGIVISQNPARGTTLANGGSVNLQVSLG	0.238
HMDGPGAGGRFLAEDLGTGKMTLEALQRHYVTLVYSRTGKYEETARRLEIDRRTVKKYLDEELLAELRET	-0.0817
HMDGQGIRSITPEYYLSDSATKMPDASSSGWKSVPDDYIDKHYYWVRSKILWDDGTYTTTTPVL	-0.291
HMDGRVQATAEKLRAALDRLARSSVGSPMIERQLTVAALAREARVGRNAIYANHRDILDELIRVRQQRRA	-0.309
HMDGTAKVAHMLVNELETFNRLKKHEIAYMLHIQPETLSRILNKLTRNGTIEIEKNSVVILNIQELKEIY	-0.271
HMDGVNRDKIEYRLDDLYYLKGSDAPYTGKVFEEWSGQQRVETNYIDGKLDGLSESWHENGQKASEVNY	-0.831
HMDHFLRRFQVEGLNLEKLLRLAAEREMDLLQVRRSGRRMTGLVAEKRLPELEELAAQGGWALRLGEY	≥ 0.43
HMDHSSLIKKLRLERGLSQKKLAQGISQRSTLASFENNATKISYNILIQYLDRMNVTLEEYQFMLDGNNL	-1.33
HMDHWQSVNSALELLEVSRRTLYDYISRKKLQTKKEGKYRYVWIDDDVIEEIKTSKSAYIEINN	-1.08
HMDIAATTVKQKIRTLLADEDAARPLSDQKIADALAEDGIDVARRTVAKYREELGIEPSWARKR	0.0608
HMDIDLGAVEEQAVKGSGPGGQKMNKTSSGVLLRYRLGEELVLVKWTRERQHSLNRFLALRELVDEIEAR	-0.099
HMDIFFEKIFNILIGYNQNQENLISEKSILNFHLSHKSNSNFEYIPDEKTPKYIWKYLSNYNLLE	-0.477
HMDIFLPDVKGYDLIPSFRRHLPDIDVIAMTGYNTRALESAVRQQDVLFYMIKPFEASQLKEILEHLVK	-0.279
HMDIKEIIKNRRIELGLTLKEVATAVGVSEGTVSRWESGNITNMKRNKIAALAKTLQIPPTTI	0.0875
HMDIKKHISATLKREMEKRGLNFMEFSTELGIPRTTLQGYLKGTSSPQADSLEELADKLGISPAELVSG	-0.434
HMDIMLLLYKNIKKRRLEIGMSQEELAQKTGYTSRSSIAKIEKGEVDLQLSKIKLFANALRVSQSELMG	-0.31
HMDIMTVGERVKKLAEKQGISLRELAKKAELSYNTVYSITRRGSERVAPDTISRLANALGVNVNELT	≥ 0.43
HMDINEIILKVASEKKTFKTSDVLEALDNNYTKQHVSALISAMVKKGILVKAGSTAKSTYALPENASLL	0.0858
